From paper PMC11201974, “Structural Insights into the Rrp4 Subunit from the Crystal Structure of the Thermoplasma acidophilum Exosome” (Biomolecules, 2024)

B1: Thermoplasma acidophilum exosome subunit Rrp42, truncated core domain, residues 20-240 (TaciRrp42) (domain or fragment, UniProt Q9HIP1 20-240, looked up)
chain: TMKGGKRIDGRLPDEFRELTIIENYIPRANGSAYVALGNTRVVAGVKIEAGEPFPDTPDQGVLTTNVELLPIAFPSFEAGPPNDLAIEVSRVVDRGIRESKMISPEKLVIEQGKKVWIVFLDINVLDYDGNLIDASTIAAVAALRNAVVPASKEGGEDFKLPVSSTPISVTMVKIGDTLVCDPSLEEDQICGGRITVTTTEDGHIRAMQKGEIGAFTVEDV
modifications: RED-tris-NTA fluorescent dye on the His tag (in MST)
notes: Exosome complex component Rrp42 of Thermoplasma acidophilum, truncated Rrp42 corresponding to the core domain composed of residues 20-240; Single subunit (pET28a) was the labelled target in MST; in the crystals the chain came from the pETDuet-1 co-expression; also called cd-TaciRrp42; source: E. coli BL21 (DE3), from pET28a alone or from pETDuet-1 co-expressed with TaciRrp41; purified (Ni-NTA, …)
B2: Thermoplasma acidophilum exosome subunit Rrp4 (TaciRrp4) (natural protein, UniProt Q9HIP3 1-236, looked up)
chain: MYQLGDVKKIVLPGDPIEVQGKMRNGVYRGQDNRYYSEYFGTLQVNDQFVDVVPFSGQYIPRKGDKVIGKVIEVGPSTWTVDINSPYFAMLHMNDTPWRMSSGDLKRYLNAGDYIYAKIMSVNEIKESWLTLKEPGLKKLEGGHMVLIHASRVPRVIGKGGGMVNMVKELTATRIIIGQNGLIWIDGPIEGVTMAIAAIEMIEREAHTEGLTARVESFLKELKGEKDGSQQNKADQ
notes: Exosome complex component Rrp4 of Thermoplasma acidophilum (N-terminal domain, S1 domain, KH domain); also called TaciRrp4-capping protein; source: E. coli Rosetta, from pET22b; purified (Ni-NTA, Superdex 200)

Tests used:
Test in all cases: MST; target (TaciRrp42 or TaciRrp41:42) labelled by RED-tris-NTA His-tag kit, 50 nM; ligand in sixteen serial dilutions (TaciRrp41 550 μM to 16.6 nM; TaciRrp4 200 μM to 6.1 nM); 30 min incubation; LED power and MST power 40%; triplicate
Settings in all cases: both partners purified
[1] = biological target: T1, Thermoplasma acidophilum exosome subunit Rrp41 (TaciRrp41) (Thermoplasma acidophilum, UniProt Q9HIP2 1-248)
T1 construct: Exosome complex component Rrp41 of Thermoplasma acidophilum; Single subunit (pET22b) used as ligand in MST; in the crystals the chain came from the pETDuet-1 co-expression with TaciRrp42; source: E. coli BL21 (DE3), from pET22b alone or from pETDuet-1 co-expressed with TaciRrp42; purified (Ni-NTA, Superdex 200)
T1 sequence: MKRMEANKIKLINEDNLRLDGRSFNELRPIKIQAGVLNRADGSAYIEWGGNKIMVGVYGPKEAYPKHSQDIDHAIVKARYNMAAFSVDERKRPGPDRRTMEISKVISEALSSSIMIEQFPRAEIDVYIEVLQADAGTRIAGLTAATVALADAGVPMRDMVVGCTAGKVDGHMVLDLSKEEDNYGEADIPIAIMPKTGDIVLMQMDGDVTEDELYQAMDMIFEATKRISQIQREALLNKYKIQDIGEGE

[2] = biological target: B2
[3] = biological target: T2, TaciRrp41:42 complex (Thermoplasma acidophilum exosome core, Rrp41 with truncated Rrp42) (Thermoplasma acidophilum, UniProt Q9HIP2 1-248; Q9HIP1 20-240)
T2 construct: Exosome complex component Rrp41 of Thermoplasma acidophilum; as the chain of m1; Exosome complex component Rrp42 of Thermoplasma acidophilum, truncated core domain of residues 20-240; as the chain of m2; The complex was purified on Ni-NTA and labelled with the His-tag labelling kit (RED-tris-NTA) for MST; the oligomeric state in the MST sample was not measured; also called TaciRrp41/cd-TaciRrp42; …
T2 sequence 1: T1 sequence
T2 sequence 2: B1 chain

Binder	Kd [1] [µM]	Kd [2] [µM]	Kd [3] [µM]
B1	169	4.82	
B2			200
